Earlier results in paper PMC8790524.

Tests used:
IL23R ECD (Homo sapiens) = IL23R ECD (Homo sapiens) (UniProt Q5VWK5); assay: ITC
[1] = biological target: IL12Rβ1 ECD (Homo sapiens) (UniProt P42701); assay: ITC

IL-23, sequence (Q9NPF7 20-189): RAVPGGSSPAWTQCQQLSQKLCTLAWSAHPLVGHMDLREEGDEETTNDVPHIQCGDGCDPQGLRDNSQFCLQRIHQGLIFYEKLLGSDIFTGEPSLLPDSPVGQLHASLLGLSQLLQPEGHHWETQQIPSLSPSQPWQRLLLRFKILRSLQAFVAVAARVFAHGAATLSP
IL-23, sequence (P29460 23-328, further chain): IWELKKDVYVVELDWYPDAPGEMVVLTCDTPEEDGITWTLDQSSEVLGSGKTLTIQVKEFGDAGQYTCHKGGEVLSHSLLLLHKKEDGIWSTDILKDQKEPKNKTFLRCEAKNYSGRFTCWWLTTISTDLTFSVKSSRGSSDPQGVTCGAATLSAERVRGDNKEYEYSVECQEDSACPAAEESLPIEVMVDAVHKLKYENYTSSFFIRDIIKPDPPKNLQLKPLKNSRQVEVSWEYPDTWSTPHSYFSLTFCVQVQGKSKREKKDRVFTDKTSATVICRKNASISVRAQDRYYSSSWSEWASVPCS
IL23R ECD (Homo sapiens), sequence (Q5VWK5 24-355): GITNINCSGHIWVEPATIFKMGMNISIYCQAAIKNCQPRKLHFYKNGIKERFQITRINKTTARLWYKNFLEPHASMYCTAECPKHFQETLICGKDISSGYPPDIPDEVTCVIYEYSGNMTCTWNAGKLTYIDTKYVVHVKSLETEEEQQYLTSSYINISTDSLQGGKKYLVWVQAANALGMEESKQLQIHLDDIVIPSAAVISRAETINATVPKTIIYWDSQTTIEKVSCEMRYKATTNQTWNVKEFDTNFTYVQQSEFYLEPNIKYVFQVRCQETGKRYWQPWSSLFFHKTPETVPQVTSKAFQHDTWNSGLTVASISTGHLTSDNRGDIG

For IL-23 (from UniProt Q9NPF7), the Kd (IL23R ECD (Homo sapiens)) is listed as 44 nM and the Kd [1] is listed as 2000 nM.
